Data published in US20040214988, “Method for stabilization of proteins using non-natural amino acids” (California Institute of Technology, published 2004).

Columns and labels:
[1] = molecular target: Tfl-bZip (GCN4 bZip segment 226-281 with Tfl-GCN4-p1 dimerization domain) four d-position Leu of the GCN4-p1 zipper replaced by 5,5,5-trifluoroleucine (UniProt P03069); experiment: EMSA; settings: densitometry of mobility shift
[2] = molecular target: T1, Leu-bZip (GCN4 bZip segment, residues 226-281) (UniProt P03069 P03069:226-281); experiment: EMSA; densitometry of mobility shift; settings: protein: synthetic; tags: 56-residue peptide; chain copies: 2 (stated, dimer)
T1 sequence (P03069 226-281, one chain of several): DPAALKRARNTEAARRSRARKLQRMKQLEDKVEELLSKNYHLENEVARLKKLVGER

[3] = molecular target: T1, Leu-bZip (GCN4 bZip segment, residues …); experiment: EMSA; no protein-bound DNA seen; settings: protein: synthetic; tags: 56-residue peptide; chain copies: 2 (stated, dimer)

Chain of Tfl-bZip (GCN4 bZip segment 226-281 with Tfl-GCN4-p1 dimerization domain) four d-position Leu of the GCN4-p1 zipper replaced by 5,5,5-trifluoroleucine (P03069 whole entry, the tested form may be a part): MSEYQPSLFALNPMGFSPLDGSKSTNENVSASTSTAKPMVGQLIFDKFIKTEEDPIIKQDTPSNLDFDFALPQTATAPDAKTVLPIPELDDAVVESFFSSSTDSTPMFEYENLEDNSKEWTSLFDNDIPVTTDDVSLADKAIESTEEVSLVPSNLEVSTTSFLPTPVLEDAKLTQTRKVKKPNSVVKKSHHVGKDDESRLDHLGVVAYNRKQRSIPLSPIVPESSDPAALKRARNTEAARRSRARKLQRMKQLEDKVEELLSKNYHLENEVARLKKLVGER

GTGGAGATGACTCATCTCCGG (double strand) [AP-1 site oligonucleotide]
Kd [1]: 12.5 nM

TGGAGATGACGTCATCTCCT (double strand) [CREB site oligonucleotide]
Kd ([1]; CD at 0 C also shows coil-to-helix transition on CREB DNA): 5.4 nM

B1: AP-1 site oligonucleotide (dsDNA)
DNA 1: GTGGAGATGACTCATCTCCGG
DNA 2: CCGGAGATGAGTCATCTCCAC
Kd [2]: 12.8 nM

B2: NON nonspecific oligonucleotide (dsDNA)
DNA 1: GATCCCAACACGTGTTGGGATC
DNA 2: GATCCCAACACGTGTTGGGATC
binding result [3]: no binding
